Source: patent publication US20060024271A1 (priority 2004, published 2006)
Like-named read-outs stand apart in the source and are kept apart here.

What was measured:
Type in all cases: in vivo, BALB/c mice
vaccinia virus [1] = details: for survival of vaccinia infected mice: 5×10^3 U/mouse/day i.n., 5 days, started one day before infection, 8 LD50, 21 days monitoring
vaccinia virus [2] = details: IFN-γ 5,000 to 20,000 U i.n., daily for five days from one day after infection; 50 LD50
vaccinia virus [3] = details: 8 LD50

| Molecule | survival of vaccinia infected mice (vaccinia virus [1]) [%] | protection against severe vaccinia infection (vaccinia virus [1]; IFN-α 5,000 U intranasal, 50 LD50 as printed in b34 (FIG. 2)) | protection against severe vaccinia infection (vaccinia virus [2]) | survival of vaccinia infected mice (vaccinia virus [3]; IFN-γ 2,000 U only, i.n., 5 days from one day after infection) [%] | protection of vaccinia infected mice (vaccinia virus [3]; IFN-γ 5,000 U) [%] |
| --- | --- | --- | --- | --- | --- |
| IFN-α | 100 | 70-80% | – | – | – |
| IFN-γ (protein, UniProt P01579 24-161, looked up) Interferon gamma: QDPYVKEAENLKKYFNAGHSDVADNGTLFLGILKNWKEESDRKIMQSQIVSFYFKLFKNFKDDQSIQKSVETIKEDMNVKFFNSNKKKRDDFEKLTNYSVTDLNVQRKAIHELIQVMAELSPAAKTGKRKRSQMLFRG | 90 | – | 70-80% | 80 | 100 |
